Reference: doi:10.1101/805184 (bioRxiv, 2019)

T1: Swi3 (S. cerevisiae, UniProt P32591 1-825)
T1 sequence: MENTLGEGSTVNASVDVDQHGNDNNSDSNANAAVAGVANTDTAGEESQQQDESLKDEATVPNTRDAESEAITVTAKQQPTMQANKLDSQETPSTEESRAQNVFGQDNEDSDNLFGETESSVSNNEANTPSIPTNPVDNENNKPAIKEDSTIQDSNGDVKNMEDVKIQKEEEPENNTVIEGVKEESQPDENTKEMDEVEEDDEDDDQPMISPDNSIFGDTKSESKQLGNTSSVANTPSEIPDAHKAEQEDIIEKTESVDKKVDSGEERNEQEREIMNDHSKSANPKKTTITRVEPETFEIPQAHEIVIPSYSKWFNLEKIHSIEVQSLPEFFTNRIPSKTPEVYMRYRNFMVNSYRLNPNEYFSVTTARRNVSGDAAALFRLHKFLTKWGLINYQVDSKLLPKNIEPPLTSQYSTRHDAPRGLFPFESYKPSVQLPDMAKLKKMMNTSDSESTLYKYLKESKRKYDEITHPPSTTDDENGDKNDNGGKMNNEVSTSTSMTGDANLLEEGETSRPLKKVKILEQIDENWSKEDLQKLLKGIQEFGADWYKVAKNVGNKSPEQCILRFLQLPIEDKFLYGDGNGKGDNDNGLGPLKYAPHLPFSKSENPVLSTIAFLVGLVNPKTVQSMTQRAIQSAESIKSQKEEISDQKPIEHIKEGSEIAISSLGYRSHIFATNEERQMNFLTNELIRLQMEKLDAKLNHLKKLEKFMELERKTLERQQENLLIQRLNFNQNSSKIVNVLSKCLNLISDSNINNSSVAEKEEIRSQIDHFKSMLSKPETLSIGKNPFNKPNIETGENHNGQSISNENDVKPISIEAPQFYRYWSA

B1: Snf12 (natural protein)
chain: MSKVMKPSNGKGSRKSSKAATPDTKNFFHAKKKDPVNQDKANNASQITPTVPHSHPSDMVIPDHLAELIPELYSFQQLVDSEKRLDHFIHLRNLHMKRMVAQWERSKLSQEFLYPHLNFPNVKFLRIFISNVSENQPWQMDTNNEADLMALENATWTMRIEGRLLDNVQANDPAREKFSSFIESIVVDFKNKENDNVPSTKFNAAPEENATEGPSDKKLNLNLPLQFSLPNGDNSTTTNTDQNNATMGEETAKKDMSSTTPKLESVKWQYDPNNPVDFDGLDIKRVGSENVECTISILRKSSPEEPFMSYSPQLTAIIGLKSGTSHDAIFSIYKYIHLNELLTNDESAFENLMGNRNNHNSNTSTSKMLDAASSQVSIVKLDTQLITLLPSSLKESSPDTMKLTDLLSLINSTHLLPLQPIEIDYTVRVDKASTYGELVLDIEVPDVNALKFNNTQRESQIGAAELNENARELEQIKPKIALQDKEITSVLSNLHESNKRYRFFKKISEDPVKALNECIASTSNALKVLSGDEGYNEDMVRRANFYKENEAMLRENIEVILSNGRM
B2: Swi1 (natural protein)
chain: MDFFNLNNNNNNNNTTTTTTTTNNNNTNNNNTNNNNNPANNTNNNNSTGHSSNTNNNTNNNNTNTGASGVDDFQNFFDPKPFDQNLDSNNNNSNSNNNDNNNSNTVASSTNFTSPTAVVNNAAPANVTGGKAANFIQNQSPQFNSPYDSNNSNTNLNSLSPQAILAKNSIIDSSNLPLQAQQQLYGGNNNNNSTGIANDNVITPHFITNVQSISQNSSSSTPNTNSNSTPNANQQFLPFNNSASNNGNLTSNQLISNYAASNSMDRSSSASNEFVPNTSDNNNNSNNHNMRNNSNNKTSNNNNVTAVPAATPANTNNSTSNANTVFSERAAMFAALQQKQQQRFQALQQQQQQQQNQQQQNQQPQQQQQQQQNPKFLQSQRQQQQRSILQSLNPALQEKISTELNNKQYELFMKSLIENCKKRNMPLQSIPEIGNRKINLFYLYMLVQKFGGADQVTRTQQWSMVAQRLQISDYQQLESIYFRILLPYERHMISQEGIKETQAKRIFLQQFLQELLKKVQQQQQAAALANANNNINSASSAPTPAAPGASVPATAAPGTEAGIVPVSANTPKSLNSNININVNNNNIGQQQVKKPRKQRVKKKTKKELELERKEREDFQKRQQKLLEDQQRQQKLLLETKLRQQYEIELKKLPKVYKRSIVRNYKPLINRLKHYNGYDINYISKIGEKIDSNKPIFLFAPELGAINLHALSMSLQSKNLGEINTALNTLLVTSADSNLKISLVKYPELLDSLAILGMNLLSNLSQNVVPYHRNTSDYYYEDAGSNQYYVTQHDKMVDKIFEKVNNNATLTPNDSNDEKVTILVDSLTGNQLPTPTPTEMEPDLDTECFISMQSTSPAVKQWDLLPEPIRFLPNQFPLKIHRTPYLTSLKKIKDEIDDPFTKINTRGAEDPKVLINDQLSTISMILRNISFSDNNSRIMSRNFYLKRFISDLLWLVLIHPENFTCNRKILNFKKDLVIVLSNISHLLEIASSIDCLLILILVISFGQPKLNPMASSSSFGSESLTFNEFQLQWGKYQTFGVDILAKLFSLEKPNLNYFKSILLNKNTGNNLYDRNSNNNHKDKKLLRRLLNLYNDNNKNNNNRHNLLNDVVSFLFSAIPLQQVLSQSADPSLLIDQFSPVISQSLTSILVIVQKILPLSNEVFEISENNSDSNSNNNGNKDSSFNFNKNLPFVWLSSEENIGSGLLKLSEIILNINNSTSKNTLLQQQNYSKVLLPSINISCVQLIKCLVEKSICFENCLNNDPEILKKIASIPNLFPTDLEIFQLFTNPSVDIQIINQYQLLYNLKNDILTNLE
B3: Arp7 (natural protein)
chain: MTLNRKCVVIHNGSHRTVAGFSNVELPQCIIPSSYIKRTDEGGEAEFIFGTYNMIDAAAEKRNGDEVYTLVDSQGLPYNWDALEMQWRYLYDTQLKVSPEELPLVITMPATNGKPDMAILERYYELAFDKLNVPVFQIVIEPLAIALSMGKSSAFVIDIGASGCNVTPIIDGIVVKNAVVRSKFGGDFLDFQVHERLAPLIKEENDMENMADEQKRSTDVWYEASTWIQQFKSTMLQVSEKDLFELERYYKEQADIYAKQQEQLKQMDQQLQYTALTGSPNNPLVQKKNFLFKPLNKTLTLDLKECYQFAEYLFKPQLISDKFSPEDGLGPLMAKSVKKAGASINSMKANTSTNPNGLGTSHINTNVGDNNSTASSSNISPEQVYSLLLTNVIITGSTSLIEGMEQRIIKELSIRFPQYKLTTFANQVMMDRKIQGWLGALTMANLPSWSLGKWYSKEDYETLKRDRKQSQATNATN
B4: Arp9 (natural protein)
chain: MAPFRQDSILIIYPRSQTTLVQFGLNEETFTVPELEIPTQIYRTTRQDGSYTYHSTNKDNKAELIKPIQNGEIIDISAFTQFLRLIFVSILSDRANKNQDAFEAELSNIPLLLITHHSWSQSDLEIITQYVFESLEINNLIQLPASLAATYSMISLQNCCIIDVGTHHTDIIPIVDYAQLDHLVSSIPMGGQSINDSLKKLLPQWDDDQIESLKKSPIFEVLSDDAKKLSSFDFGNENEDEDEGTLNVAEIITSGRDTREVLEERERGQKVKNVKNSDLEFNTFWDEKGNEIKVGKQRFQGCNNLIKNISNRVGLTLDNIDDINKAKAVWENIIIVGGTTSISGFKEALLGQLLKDHLIIEPEEEKSKREEEAKSVLPAATKKKSKFMTNSTAFVPTIEYVQCPTVIKLAKYPDYFPEWKKSGYSEIIFLGAQIVSKQIFTHPKDTFYITREKYNMKGPAALWDVQF
B5: Rtt102 (natural protein)
chain: MDPQTLITKANKVSYYGNPTSKESWRYDWYQPSKVSSNVQQPQQQLGDMENNLEKYPFRYKTWLRNQEDEKNLQRESCEDILDLKEFDRRILKKSLMTSHTKGDTSKATGAPSANQGDEALSVDDIRGAVGNSEAIPGLSAGVNNDNTKESKDVKMN
B6: Snf5 (natural protein)
chain: MNNQPQGTNSVPNSIGNIFSNIGTPSFNMAQIPQQLYQSLTPQQLQMIQQRHQQLLRSRLQQQQQQQQQTSPPPQTHQSPPPPPQQSQPIANQSATSTPPPPPAPHNLHPQIGQVPLAPAPINLPPQIAQLPLATQQQVLNKLRQQAIAKNNPQVVNAITVAQQQVQRQIEQQKGQQTAQTQLEQQRQLLVQQQQQQQLRNQIQRQQQQQFRHHVQIQQQQQKQQQQQQQHQQQQQQQQQQQQQQQQQQQQQQQQQQQQQQQQQQQQQGQIPQSQQVPQVRSMSGQPPTNVQPTIGQLPQLPKLNLPKYQTIQYDPPETKLPYPTYWSDKKADTDTLLYEQIIQRDKINKYSLIRETNGYDPFSIYGFSNKEYISRLWHTLKYYQDLKNTRMKSITSTSQKIPSASIWGNGYSGYGNGITNTTTRVIPQVEVGNRKHYLEDKLKVYKQAMNETSEQLVPIRLEFDQDRDRFFLRDTLLWNKNDKLIKIEDFVDDMLRDYRFEDATREQHIDTICQSIQEQIQEFQGNPYIELNQDRLGGDDLRIRIKLDIVVGQNQLIDQFEWDISNSDNCPEEFAESMCQELELPGEFVTAIAHSIREQVHMYHKSLALLGYNFDGSAIEDDDIRSRMLPTITLDDVYRPAAESKIFTPNLLQISAAELERLDKDKDRDTRRKRRQGRSNRRGMLALSGTSASNTSMNGVHNTVAAGNASSLPPGEILLPDIADIPRTFRTPVPSTLMPGGVDVGPSVESYELRNTTTYKSRPDRPKPVSPPCYIIDHIPGHSLLLSIKLPGKVNTKEEFAAAPNDTSSGTNAMLPSPESLKTKLNSNIRAGVTIPSIPNPIANHTVTNSPNPTLQPVIPGGAASKSVPTPSLPIAPPVAPHDSEATLLTNSNNGSSNNNTQNT

What was measured:
Experiment in all cases: cryo-EM structure
Swi3 = biological target: T1, Swi3
Swi1 = biological target: B2
Snf2 = Snf2 (S. cerevisiae, UniProt P22082 1-1703)
Chain of Snf2 (P22082 whole entry): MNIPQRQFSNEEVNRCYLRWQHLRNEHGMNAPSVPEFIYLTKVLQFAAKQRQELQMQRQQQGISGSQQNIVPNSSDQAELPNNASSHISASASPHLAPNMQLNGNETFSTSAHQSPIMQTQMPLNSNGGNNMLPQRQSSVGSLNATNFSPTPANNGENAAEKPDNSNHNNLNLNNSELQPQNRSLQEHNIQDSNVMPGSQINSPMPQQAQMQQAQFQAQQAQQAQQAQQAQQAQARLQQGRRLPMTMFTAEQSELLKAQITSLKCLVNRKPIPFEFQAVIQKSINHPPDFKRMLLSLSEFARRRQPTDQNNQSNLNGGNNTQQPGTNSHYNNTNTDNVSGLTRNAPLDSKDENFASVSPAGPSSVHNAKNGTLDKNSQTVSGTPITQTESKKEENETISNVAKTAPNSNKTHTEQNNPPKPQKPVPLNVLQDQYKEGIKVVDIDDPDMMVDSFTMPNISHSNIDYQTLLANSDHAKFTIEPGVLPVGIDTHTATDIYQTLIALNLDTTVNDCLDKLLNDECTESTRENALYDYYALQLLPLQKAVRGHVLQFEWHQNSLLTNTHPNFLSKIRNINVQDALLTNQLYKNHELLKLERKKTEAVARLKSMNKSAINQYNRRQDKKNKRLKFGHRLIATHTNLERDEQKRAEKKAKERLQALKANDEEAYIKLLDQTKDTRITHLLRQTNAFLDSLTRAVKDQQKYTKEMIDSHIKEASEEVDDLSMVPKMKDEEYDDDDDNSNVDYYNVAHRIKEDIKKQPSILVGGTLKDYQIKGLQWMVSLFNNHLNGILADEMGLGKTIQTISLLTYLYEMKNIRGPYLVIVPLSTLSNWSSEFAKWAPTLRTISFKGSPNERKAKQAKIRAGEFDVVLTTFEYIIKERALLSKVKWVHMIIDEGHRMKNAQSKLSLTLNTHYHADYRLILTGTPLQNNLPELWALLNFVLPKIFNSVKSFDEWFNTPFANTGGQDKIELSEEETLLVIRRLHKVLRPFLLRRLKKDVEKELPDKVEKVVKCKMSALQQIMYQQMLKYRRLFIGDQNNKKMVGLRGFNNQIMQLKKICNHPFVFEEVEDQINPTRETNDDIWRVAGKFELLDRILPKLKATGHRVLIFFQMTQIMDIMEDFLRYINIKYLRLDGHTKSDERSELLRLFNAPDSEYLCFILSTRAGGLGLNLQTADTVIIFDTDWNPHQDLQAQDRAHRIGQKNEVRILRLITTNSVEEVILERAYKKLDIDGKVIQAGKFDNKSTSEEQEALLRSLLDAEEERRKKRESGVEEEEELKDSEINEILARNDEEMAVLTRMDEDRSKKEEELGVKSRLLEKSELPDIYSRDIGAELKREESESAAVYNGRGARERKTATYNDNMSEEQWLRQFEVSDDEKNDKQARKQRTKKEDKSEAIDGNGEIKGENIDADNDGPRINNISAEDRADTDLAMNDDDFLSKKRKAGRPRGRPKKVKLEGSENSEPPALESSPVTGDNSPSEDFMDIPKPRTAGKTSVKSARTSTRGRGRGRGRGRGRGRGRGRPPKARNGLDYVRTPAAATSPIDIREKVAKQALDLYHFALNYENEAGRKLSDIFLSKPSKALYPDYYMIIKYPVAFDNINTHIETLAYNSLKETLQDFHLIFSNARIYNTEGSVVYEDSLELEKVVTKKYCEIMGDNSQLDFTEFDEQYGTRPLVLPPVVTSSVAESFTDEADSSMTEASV

| binding result (Swi3) | binding result (Swi1) | binding result (Snf2) | Binder |
| --- | --- | --- | --- |
| binds | binds |  | B1 |
|  |  | binds | B2 |
|  |  | binds | B3 |
|  |  | binds | B4 |
|  |  | binds | B5 |
|  | binds |  | B6 |
